Publication PMC3260417 (Bioorganic Chemistry, 2011)

Tests used:
[1] = target: 3-deoxy-D-arabino-heptulosonate 7-phosphate synthase from Aeropyrum pernix (Aeropyrum pernix); assay: SEC
[2] = target: DAH7PS^Ap (DAHPS^Ap; 3-deoxy-D-arabino-heptulosonate 7-phosphate synthase) (Aeropyrum pernix, UniProt Q9YEJ7); assay: initial rates, discontinuous periodate-thiobarbituric acid; type: biochemical; details: read-out: apparent Km; 3 mM PEP (saturating), pH 7.0, 60 °C; enzyme as isolated (Zn)

Row | stoichiometry N [1] | Km [2] [µM] | Compound
1 | 2 |  | 3-deoxy-D-arabino-heptulosonate 7-phosphate synthase from Aeropyrum pernix (enzyme)
2 |  | 280 ± 20 | O=C[C@H](O)[C@H](O)COP(=O)(O)O [E4P]
